Measured values: patent publication US20240270846A1 (published 2024)

B1: CE115HA000 N31S one-arm antibody (antibody, human IgG1, kappa, L234A L235A, N297A, name in Kabat numbering)
heavy: QVQLVESGGGVVQPGRSLRLSCAASGFTFSSAWMHWVRQAPGKGLEWVAQIKAKSNNYATYYAESVKGRFTISRDDSKNSLYLQMNSLKTEDTAVYYCRYVHYGAYYGVDAWGQGTTVTVSSASTKGPSVFPLAPSSKSTSGGTAALGCLVKDYFPEPVTVSWNSGALTSGVHTFPAVLQSSGLYSLSSVVTVPSSSLGTQTYICNVNHKPSNTKVDKKVEPKSCDKTHTCPPCPAPEAAGGPSVFLFPPKPKDTLMISRTPEVTCVVVDVSHEDPEVKFNWYVDGVEVHNAKTKPREEQYASTYRVVSVLTVLHQDWLNGKEYKCKVSNKALPAPIEKTISKAKGQPREPQVYTLPPSRCELTKNQVSLSCAVKGFYPSDIAVEWESNGQPENNYKTTPPVLDSDGSFFLVSKLTVDKSRWQQGNVFSCSVMHEALHNHYTQKSLSLSPDYKDDDDK
chain: EPKSSDKTHTCPPCPAPELLGGPSVFLFPPKPKDTLMISRTPEVTCVVVDVSHEDPEVKFNWYVDGVEVHNAKTKPREEQYNSTYRVVSVLTVLHQDWLNGKEYKCKVSNKALPAPIEKTISKAKGQPREPQVCTLPPSRDELTKNQVSLWCLVKGFYPSDIAVEWESNGQPENNYKTTPPVLDSDGSFFLYSKLTVDKSRWQQGNVFSCSVMHEALHNRYTQKSLSLSP
light: DIVMTQSPLSLPVTPGEPASISCRSSQSLVHSNRNTYLHWYQQKPGQAPRLLIYKVSNRFSGVPDRFSGSGSGTDFTLKISRVEAEDVGVYYCGQGTQVPYTFGQGTKLEIKRTVAAPSVFIFPPSDEQLKSGTASVVCLLNNFYPREAKVQWKVDNALQSGNSQESVTEQDSKDSTYSLSSTLTLSKADYEKHKVYACEVTHQGLSSPVTKSFNRGEC
notes: one-arm antibody
B2: CE115HA000 N31W one-arm antibody (antibody, human IgG1, kappa, L234A L235A, N297A, name in Kabat numbering)
heavy: QVQLVESGGGVVQPGRSLRLSCAASGFTFSWAWMHWVRQAPGKGLEWVAQIKAKSNNYATYYAESVKGRFTISRDDSKNSLYLQMNSLKTEDTAVYYCRYVHYGAYYGVDAWGQGTTVTVSSASTKGPSVFPLAPSSKSTSGGTAALGCLVKDYFPEPVTVSWNSGALTSGVHTFPAVLQSSGLYSLSSVVTVPSSSLGTQTYICNVNHKPSNTKVDKKVEPKSCDKTHTCPPCPAPEAAGGPSVFLFPPKPKDTLMISRTPEVTCVVVDVSHEDPEVKFNWYVDGVEVHNAKTKPREEQYASTYRVVSVLTVLHQDWLNGKEYKCKVSNKALPAPIEKTISKAKGQPREPQVYTLPPSRCELTKNQVSLSCAVKGFYPSDIAVEWESNGQPENNYKTTPPVLDSDGSFFLVSKLTVDKSRWQQGNVFSCSVMHEALHNHYTQKSLSLSPDYKDDDDK
chain: EPKSSDKTHTCPPCPAPELLGGPSVFLFPPKPKDTLMISRTPEVTCVVVDVSHEDPEVKFNWYVDGVEVHNAKTKPREEQYNSTYRVVSVLTVLHQDWLNGKEYKCKVSNKALPAPIEKTISKAKGQPREPQVCTLPPSRDELTKNQVSLWCLVKGFYPSDIAVEWESNGQPENNYKTTPPVLDSDGSFFLYSKLTVDKSRWQQGNVFSCSVMHEALHNRYTQKSLSLSP
light: DIVMTQSPLSLPVTPGEPASISCRSSQSLVHSNRNTYLHWYQQKPGQAPRLLIYKVSNRFSGVPDRFSGSGSGTDFTLKISRVEAEDVGVYYCGQGTQVPYTFGQGTKLEIKRTVAAPSVFIFPPSDEQLKSGTASVVCLLNNFYPREAKVQWKVDNALQSGNSQESVTEQDSKDSTYSLSSTLTLSKADYEKHKVYACEVTHQGLSSPVTKSFNRGEC
notes: one-arm antibody
B3: CE115HA000 N31Y one-arm antibody (antibody, human IgG1, kappa, L234A L235A, N297A, name in Kabat numbering)
heavy: QVQLVESGGGVVQPGRSLRLSCAASGFTFSYAWMHWVRQAPGKGLEWVAQIKAKSNNYATYYAESVKGRFTISRDDSKNSLYLQMNSLKTEDTAVYYCRYVHYGAYYGVDAWGQGTTVTVSSASTKGPSVFPLAPSSKSTSGGTAALGCLVKDYFPEPVTVSWNSGALTSGVHTFPAVLQSSGLYSLSSVVTVPSSSLGTQTYICNVNHKPSNTKVDKKVEPKSCDKTHTCPPCPAPEAAGGPSVFLFPPKPKDTLMISRTPEVTCVVVDVSHEDPEVKFNWYVDGVEVHNAKTKPREEQYASTYRVVSVLTVLHQDWLNGKEYKCKVSNKALPAPIEKTISKAKGQPREPQVYTLPPSRCELTKNQVSLSCAVKGFYPSDIAVEWESNGQPENNYKTTPPVLDSDGSFFLVSKLTVDKSRWQQGNVFSCSVMHEALHNHYTQKSLSLSPDYKDDDDK
chain: EPKSSDKTHTCPPCPAPELLGGPSVFLFPPKPKDTLMISRTPEVTCVVVDVSHEDPEVKFNWYVDGVEVHNAKTKPREEQYNSTYRVVSVLTVLHQDWLNGKEYKCKVSNKALPAPIEKTISKAKGQPREPQVCTLPPSRDELTKNQVSLWCLVKGFYPSDIAVEWESNGQPENNYKTTPPVLDSDGSFFLYSKLTVDKSRWQQGNVFSCSVMHEALHNRYTQKSLSLSP
light: DIVMTQSPLSLPVTPGEPASISCRSSQSLVHSNRNTYLHWYQQKPGQAPRLLIYKVSNRFSGVPDRFSGSGSGTDFTLKISRVEAEDVGVYYCGQGTQVPYTFGQGTKLEIKRTVAAPSVFIFPPSDEQLKSGTASVVCLLNNFYPREAKVQWKVDNALQSGNSQESVTEQDSKDSTYSLSSTLTLSKADYEKHKVYACEVTHQGLSSPVTKSFNRGEC
notes: one-arm antibody
B4: CE115HA000 N53A one-arm antibody (antibody, human IgG1, kappa, L234A L235A, N297A, name in Kabat numbering)
heavy: QVQLVESGGGVVQPGRSLRLSCAASGFTFSNAWMHWVRQAPGKGLEWVAQIKAKSANYATYYAESVKGRFTISRDDSKNSLYLQMNSLKTEDTAVYYCRYVHYGAYYGVDAWGQGTTVTVSSASTKGPSVFPLAPSSKSTSGGTAALGCLVKDYFPEPVTVSWNSGALTSGVHTFPAVLQSSGLYSLSSVVTVPSSSLGTQTYICNVNHKPSNTKVDKKVEPKSCDKTHTCPPCPAPEAAGGPSVFLFPPKPKDTLMISRTPEVTCVVVDVSHEDPEVKFNWYVDGVEVHNAKTKPREEQYASTYRVVSVLTVLHQDWLNGKEYKCKVSNKALPAPIEKTISKAKGQPREPQVYTLPPSRCELTKNQVSLSCAVKGFYPSDIAVEWESNGQPENNYKTTPPVLDSDGSFFLVSKLTVDKSRWQQGNVFSCSVMHEALHNHYTQKSLSLSPDYKDDDDK
chain: EPKSSDKTHTCPPCPAPELLGGPSVFLFPPKPKDTLMISRTPEVTCVVVDVSHEDPEVKFNWYVDGVEVHNAKTKPREEQYNSTYRVVSVLTVLHQDWLNGKEYKCKVSNKALPAPIEKTISKAKGQPREPQVCTLPPSRDELTKNQVSLWCLVKGFYPSDIAVEWESNGQPENNYKTTPPVLDSDGSFFLYSKLTVDKSRWQQGNVFSCSVMHEALHNRYTQKSLSLSP
light: DIVMTQSPLSLPVTPGEPASISCRSSQSLVHSNRNTYLHWYQQKPGQAPRLLIYKVSNRFSGVPDRFSGSGSGTDFTLKISRVEAEDVGVYYCGQGTQVPYTFGQGTKLEIKRTVAAPSVFIFPPSDEQLKSGTASVVCLLNNFYPREAKVQWKVDNALQSGNSQESVTEQDSKDSTYSLSSTLTLSKADYEKHKVYACEVTHQGLSSPVTKSFNRGEC
notes: one-arm antibody

Target: T1, CD3 epsilon homodimer protein (UniProt P07766 23-126)
T1 construct: also called CD3 (CD3 epsilon)
T1 sequence (P07766 23-126): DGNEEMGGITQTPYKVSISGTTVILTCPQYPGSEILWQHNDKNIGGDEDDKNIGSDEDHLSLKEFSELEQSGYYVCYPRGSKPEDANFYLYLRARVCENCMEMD
Assay: SPR Biacore T200, antibody over immobilised CD3e homodimer;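 further: CD3 epsilon homodimer amine-coupled on a CM4 chip, run at 25 °C in HBS-EP+, Z = bound amount of each single-residue H chain variant over that of the parent antibody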

Going from B1 to B2, the “ratio of amounts bound (Z=Y/X vs CE115HA000)” value falls from 0.81 to 0.63.

First: B3
Second: B4
The “ratio of amounts bound (Z=Y/X vs CE115HA000)” value of the first is lower: 0.64 for the first, 0.7 for the second.
